In the assay the target is multi-tRNA synthetase complex without ArgRS and GlnRS (human (endogenous in HEK 293T)) (UniProt P56192). The assay can be described thus: SEC; lysate of wildtype 293T cells (20 mM Tris-HCl pH 7.5, 1 mM EDTA, 150 mM NaCl, 0.1% IGEPAL CA-630) on Superdex 200 in Dulbecco's PBS; 1 ml fractions analysed by western blot; intact MSC in fractions 10-12. On the technique in general: In gel filtration, larger molecules generally elute earlier.
UniProt P56192, sequence (P56192 whole entry, looked up, one chain of several): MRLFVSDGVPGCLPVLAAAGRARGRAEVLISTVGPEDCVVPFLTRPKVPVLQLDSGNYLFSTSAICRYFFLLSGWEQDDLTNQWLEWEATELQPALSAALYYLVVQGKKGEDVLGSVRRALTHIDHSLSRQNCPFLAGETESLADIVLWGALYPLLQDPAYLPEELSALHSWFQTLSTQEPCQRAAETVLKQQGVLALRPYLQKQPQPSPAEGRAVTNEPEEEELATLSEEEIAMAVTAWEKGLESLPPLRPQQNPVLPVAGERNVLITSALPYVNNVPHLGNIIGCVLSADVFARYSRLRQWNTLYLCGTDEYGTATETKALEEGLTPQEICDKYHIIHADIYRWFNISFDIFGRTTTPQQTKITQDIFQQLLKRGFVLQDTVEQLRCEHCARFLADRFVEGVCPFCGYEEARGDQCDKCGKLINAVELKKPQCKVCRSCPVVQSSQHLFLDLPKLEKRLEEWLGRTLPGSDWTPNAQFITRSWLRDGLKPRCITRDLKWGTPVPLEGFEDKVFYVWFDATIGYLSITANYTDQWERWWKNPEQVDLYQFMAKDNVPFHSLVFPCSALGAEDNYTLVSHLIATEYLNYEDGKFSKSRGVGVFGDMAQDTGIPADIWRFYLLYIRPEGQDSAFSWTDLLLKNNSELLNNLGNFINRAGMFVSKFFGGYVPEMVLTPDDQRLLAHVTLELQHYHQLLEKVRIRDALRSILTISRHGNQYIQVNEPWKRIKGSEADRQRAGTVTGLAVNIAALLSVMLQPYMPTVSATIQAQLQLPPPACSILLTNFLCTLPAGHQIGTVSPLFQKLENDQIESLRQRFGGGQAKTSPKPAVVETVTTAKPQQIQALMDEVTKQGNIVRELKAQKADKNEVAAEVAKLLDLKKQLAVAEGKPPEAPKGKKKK

B1: arginyl-tRNA synthetase, full-length (enzyme)
chain: MDVLVSECSARLLQQEEEIKSLTAEIDRLKNCGCLGASPNLEQLQEENLKLKYRLNILRKSLQAERNKPTKNMINIISRLQEVFGHAIKAAYPDLENPPLLVTPSQQAKFGDYQCNSAMGISQMLKTKEQKVNPREIAENITKHLPDNECIEKVEIAGPGFINVHLRKDFVSEQLTSLLVNGVQLPALGENKKVIVDFSSPNIAKEMHVGHLRSTIIGESISRLFEFAGYDVLRLNHVGDWGTQFGMLIAHLQDKFPDYLTVSPPIGDLQVFYKESKKRFDTEEEFKKRAYQCVVLLQGKNPDITKAWKLICDVSRQELNKIYDALDVSLIERGESFYQDRMNDIVKEFEDRGFVQVDDGRKIVFVPGCSIPLTIVKSDGGYTYDTSDLAAIKQRLFEEKADMIIYVVDNGQSVHFQTIFAAAQMIGWYDPKVTRVFHAGFGVVLGEDKKKFKTRSGETVRLMDLLGEGLKRSMDKLKEKERDKVLTAEELNAAQTSVAYGCIKYADLSHNRLNDYIFSFDKMLDDRGNTAAYLLYAFTRIRSIARLANIDEEMLQKAARETKILLDHEKEWKLGRCILRFPEILQKILDDLFLHTLCDYIYELATAFTEFYDSCYCVEKDRQTGKILKVNMWRMLLCEAVAAVMAKGFDILGIKPVQRM
On to B1, for which the percent of ArgRS not bound to the MSC turned out to be 40%.

These data come from publication PMC8053116.
